Assays:
[1] = target: MSMEG_1356 (DUF664 family protein, DinB/YfiT-like putative metalloenzymes superfamily) (Mycobacterium smegmatis) (UniProt A0QS54); assay: SEC; gel filtration step of the purification, Superdex 75 10/300 GL 24 mL, after dialysis against buffer D (50 mM HEPES-KOH pH 7.0, 150 mM NaCl, 0.5 mM TCEP)
[2] = target: MSMEG_1356 (DUF664 family protein, DinB/YfiT-like putative metalloenzymes superfamily) (Mycobacterium smegmatis) (UniProt A0QS54); assay: SEC; analytical gel filtration, Superdex 200 Increase 10/300 GL, buffer GF (50 mM HEPES-KOH pH 7.0, 150 mM NaCl, 0.5 mM TCEP, 1 mM EDTA); SiwR 40 uM protomer, MSMEG_1357 or MSMEG_1356 100 uM protomer; incubated at 37 °C for 20 min, run at 0.5 mL/min at room temperature
[3] = target: Sumo-SiwR (His6-TEV-Sumo-linker fused to the N-terminus of SiwR, stress-involved WYL domain-containing regulator, MSMEG_1359) (Mycobacterium smegmatis) (UniProt A0QS56); assay: as above
[4] = target: the molecule itself; assay: as above
Sumo-SiwR [5] = target: T1, Sumo-SiwR (Mycobacterium smegmatis, UniProt A0QS56 1-320); assay: EMSA; EMSA: 5 mM HEPES-KOH pH 7.0, 30 mM NaCl, 2.5% Ficoll 400K, 1% glycerol, 5 nM probe (10 nM in Fig. 2a legend), 37 °C 15 min; anisotropy: 5 mM HEPES-KOH pH 7, 30; details: protein: recombinant; tags: His6-TEV-Sumo N-terminal fusion; chain copies: 2; label: 5'-FAM on strand 1; blunt
T1 sequence: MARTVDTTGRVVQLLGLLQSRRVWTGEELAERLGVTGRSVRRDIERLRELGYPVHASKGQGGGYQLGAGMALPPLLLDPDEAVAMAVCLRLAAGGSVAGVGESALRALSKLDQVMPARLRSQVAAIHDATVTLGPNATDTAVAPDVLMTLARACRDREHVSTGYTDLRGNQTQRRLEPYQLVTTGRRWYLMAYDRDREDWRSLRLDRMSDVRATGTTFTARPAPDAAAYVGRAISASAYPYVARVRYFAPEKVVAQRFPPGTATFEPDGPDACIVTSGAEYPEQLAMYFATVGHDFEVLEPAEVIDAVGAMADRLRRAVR

Sumo-SiwR [6] = target: T1, Sumo-SiwR; assay: fluorescence anisotropy; EMSA: 5 mM HEPES-KOH pH 7.0, 30 mM NaCl, 2.5% Ficoll 400K, 1% glycerol, 5 nM probe (10 nM in Fig. 2a legend), 37 °C 15 min; anisotropy: 5 mM HEPES-KOH pH 7, 30; details: protein: recombinant, tags: His6-TEV-Sumo N-terminal fusion, chain copies: 2
Sumo-SiwR R204A-R207A [7] = target: T2, Sumo-SiwR R204A-R207A (Mycobacterium smegmatis, UniProt A0QS56 1-320, R204A;R207A); assay: EMSA; comparable to wild type; EMSA: 5 mM HEPES-KOH pH 7.0, 30 mM NaCl, 2.5% Ficoll 400K, 1% glycerol, 5 nM probe (10 nM in Fig. 2a legend), 37 °C 15 min; anisotropy: 5 mM HEPES-KOH pH 7, 30; details: protein: recombinant; tags: His6-TEV-Sumo N-terminal fusion; chain copies: 2; label: 5'-FAM on strand 2; blunt
T2 sequence: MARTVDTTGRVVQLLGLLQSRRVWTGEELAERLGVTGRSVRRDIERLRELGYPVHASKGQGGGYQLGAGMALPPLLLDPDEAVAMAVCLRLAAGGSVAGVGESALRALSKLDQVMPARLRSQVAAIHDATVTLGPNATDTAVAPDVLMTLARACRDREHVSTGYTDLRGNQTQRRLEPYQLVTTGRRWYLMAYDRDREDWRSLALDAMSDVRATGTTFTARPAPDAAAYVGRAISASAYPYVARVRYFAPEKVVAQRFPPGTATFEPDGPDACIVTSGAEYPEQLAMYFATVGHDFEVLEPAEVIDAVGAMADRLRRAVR

Sumo-SiwR [8] = target: T1, Sumo-SiwR; assay: fluorescence anisotropy; Kd for SiwR dimer; EMSA: 5 mM HEPES-KOH pH 7.0, 30 mM NaCl, 2.5% Ficoll 400K, 1% glycerol, 5 nM probe (10 nM in Fig. 2a legend), 37 °C 15 min; anisotropy: 5 mM HEPES-KOH pH 7, 30; details: protein: recombinant; tags: His6-TEV-Sumo N-terminal fusion; chain copies: 2; label: 5'-FAM on strand 2; blunt
Sumo-SiwR R204A-R207A [9] = target: T2, Sumo-SiwR R204A-R207A; assay: fluorescence anisotropy; EMSA: 5 mM HEPES-KOH pH 7.0, 30 mM NaCl, 2.5% Ficoll 400K, 1% glycerol, 5 nM probe (10 nM in Fig. 2a legend), 37 °C 15 min; anisotropy: 5 mM HEPES-KOH pH 7, 30; details: protein: recombinant; tags: His6-TEV-Sumo N-terminal fusion; chain copies: 2; label: FAM

Molecule: MSMEG_1356 (DUF664 family protein, DinB/YfiT-like putative metalloenzymes superfamily) (from UniProt A0QS54 1-203) (natural protein)
- stoichiometry N [1]: 2
- stoichiometry N [2]: 2

Molecule: Sumo-SiwR (His6-TEV-Sumo-linker fused to the N-terminus of SiwR, stress-involved WYL domain-containing regulator, MSMEG_1359) (from UniProt A0QS56 1-320) (natural protein)
- stoichiometry N [3]: 2

B1: MSMEG_1357 (DinB_2 family protein, DinB/YfiT-like putative metalloenzymes superfamily) (natural protein, Mycobacterium smegmatis, UniProt A0QS55 1-175, looked up)
chain: MDIDLIADQLDFHWTHQLRPRLDGLTDDEYFWQPVPGCWTVHADGSIDFSYPEPQPTPFTTIAWRLAHVIVGVLAMRNHSHFGGPPADYQTWPYATDAKTALEQLDDAHRNWITGVRALSEDDLQRPVGPAEGPWADHPMSELVLHINREVIHHGAEIACIRDLYAHTNNTAEEN
notes: MSMEG_1357, DinB_2 family (pfam12867) protein of Mycobacterium smegmatis; expressed from a pET21-His6-TEV-MSMEG_1357 plasmid; The construct name puts His6-TEV before the protein; No TEV cleavage is described; also called His6-TEV-MSMEG_1357
- stoichiometry N [4]: 2

B2: fragment a (dsDNA)
DNA 1: GTGACCCACCCTGACAGGCATATAGGACAGT
DNA 2: ACTGTCCTATATGCCTGTCAGGGTGGGTCAC
- binding result (Sumo-SiwR [5]): no binding

B3: DNA fork mimic (dsDNA)
DNA 1: CGTCAGTCCAGTATCCGACGACTG
DNA 2: CAGTCGTCGGATTGACCTGACTGC
- Kd (Sumo-SiwR [6]; label: 5'-FAM on strand 1, fork 1:2, 12 bp duplex with 12-nt 5' tail (strand 1) and 12-nt 3' tail (strand 2)): 898 nM

B4: 12-nt ssDNA (ssDNA)
DNA: CGTCAGTCCAGT
- Kd (Sumo-SiwR [6]; label: 5'-FAM): 178 nM

B5: 12-nt ssDNA 8-oxoG (ssDNA)
DNA: CGTCAGTCCAGT
modifications: 8-oxoguanine at position 6
- Kd (Sumo-SiwR [6]; label: 5'-FAM): 227 nM

B6: 5' tailed DNA (dsDNA)
DNA 1: CGTCAGTCCAGT
DNA 2: GTCAGCAGCCTAACTGGACTGACG
- Kd (Sumo-SiwR [6]; label: 5'-FAM on strand 1, 12 bp duplex, 5' overhang 12 nt on strand 2): 306 nM

B7: 3' tailed DNA (dsDNA)
DNA 1: GCAGTCAGGTCAATCCGACGACTG
DNA 2: TGACCTGACTGC
- Kd (Sumo-SiwR [6]; label: FAM on strand 1, 12 bp duplex, 3' overhang 12 nt on strand 1): 702 nM

B8: msmeg_1357-56 promoter (dsDNA)
DNA 1: TGACCCACCCTGACAGGCATATAGGACAGTTCCGGTCCTAAAAGTGCGGCAGACTTGTCG
DNA 2: CGACAAGTCTGCCGCACTTTTAGGACCGGAACTGTCCTATATGCCTGTCAGGGTGGGTCA
- binding result (Sumo-SiwR R204A-R207A [7]): binds
- Kd (Sumo-SiwR [8]): 651 nM

B9: fragment b (dsDNA)
DNA 1: TCCGGTCCTAAAAGTGCGGCAGACTTGTCGC
DNA 2: GCGACAAGTCTGCCGCACTTTTAGGACCGGA
- binding result (Sumo-SiwR [5]): no binding

B10: 12-nt ssRNA (ssRNA)
RNA: CGUCAGUCCAGU
- binding result (Sumo-SiwR [6]): no binding

B11: fragment c (dsDNA)
DNA 1: TGACAGGCATATAGGACAGTTCCGGTCCTAAAAGTGCGGC
DNA 2: GCCGCACTTTTAGGACCGGAACTGTCCTATATGCCTGTCA
- binding result (Sumo-SiwR [5]): binds

B12: fragment d (dsDNA)
DNA 1: GGCATATAGGACAGTTCCGGTCCTAAAAGT
DNA 2: ACTTTTAGGACCGGAACTGTCCTATATGCC
- binding result (Sumo-SiwR [5]): binds

B13: polyT20 (ssDNA)
DNA: TTTTTTTTTTTTTTTTTTTT
- Kd (Sumo-SiwR [6]; label: FAM): 182 nM
- binding result (Sumo-SiwR R204A-R207A [9]): no binding

From paper PMC10693628, “Novel WYL domain-containing transcriptional activator acts in response to genotoxic stress in rapidly growing mycobacteria” (Communications Biology, 2023)
